These results are taken from patent US20230322957A1 (ENGMAB SARL, published 2023).

Test [1] deals with recombinant cynomolgus BCMA Fc(kih) (cynomolgus, UniProt A0A2K5UD97 4-51, biotinylated in vivo at the avi-tag at the C-terminus of the Fc knob chain). Kind of test: ratio of the SPR KDs of Table 4, human BCMA as reference. Here is the method: Assessment of binding of anti-BCMA antibodies to recombinant BCMA by surface plasmon resonance (SPR) as follow. All SPR experiments were performed on a Biacore T200 at 25° C. with HBS-EP as running buffer (0.01M HEPES pH 7.4, 0.15M NaCl, 3 mM EDTA, 0.005% Surfactant P20, Biacore, Freiburg/Germany). The avidity of the interaction between anti-BCMA antibodies and recombinant BCMA Fc(kih) (human and cynomolgus) was determined. Biotinylated recombinant human and cynomolgus BCMA Fc(kih) were directly coupled on a SA chip following instructions (Biacore, Freiburg/Germany). The immobilization level ranged from 200 to 700 RU. […] The dissociation was monitored for 180 seconds. Bulk refractive index differences were corrected for by subtracting the response obtained on the reference flow cell. Here, the anti-BCMA antibodies were flown over an empty surface previously activated and deactivated as described in the standard amine coupling kit. Apparent kinetic constants were derived using the Biacore T200 Evaluation Software (vAA, Biacore AB, Uppsala/Sweden), to fit rate equations for 1:1 Langmuir binding by numerical integration, despite the bivalency of the interaction for comparison purposes. The affinity of the interaction between anti-BCMA antibodies and recombinant human BCMA Fc(kih) was also determined. Anti-human Fab antibody (GE Healthcare) was directly coupled on a CM5 chip at pH 5.0 using the standard amine coupling kit (Biacore, Freiburg/Germany). The immobilization level was about 6500 RU. […] The dissociation was monitored for 120 seconds. Bulk refractive index differences were corrected for by subtracting the response obtained on reference flow cell. […] Kinetic constants were derived using the Biacore T100 Evaluation Software (vAA, Biacore AB, Uppsala/Sweden), to fit rate equations for 1:1 Langmuir binding by numerical integration (Table 4).
Chain of recombinant cynomolgus BCMA Fc(kih) (A0A2K5UD97 entry or part of it): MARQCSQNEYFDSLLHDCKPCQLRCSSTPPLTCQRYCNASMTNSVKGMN

The target in test [2] is T1, human BCMA on the cell surface (human, UniProt Q02223 1-184).
T1 sequence (looked up): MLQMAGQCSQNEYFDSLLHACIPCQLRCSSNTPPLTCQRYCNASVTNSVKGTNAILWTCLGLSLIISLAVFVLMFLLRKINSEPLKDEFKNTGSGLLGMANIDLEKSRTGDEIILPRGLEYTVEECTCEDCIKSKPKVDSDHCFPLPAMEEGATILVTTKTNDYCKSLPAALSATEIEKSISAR
Kind of test: cell-based or functional assay.

For test [3], the target named is T1, human BCMA on the cell surface. Kind of test: cell-based or functional assay. The source holds these as a separate data set.
For test [4] the target is unchanged. Kind of test: cell-based or functional assay. This is another data set of the same source.
Test [5] shares this target. Kind of test: cell-based or functional assay. This is another data set of the same source.
Test [6] has the same target. Kind of test: cell-based or functional assay. This is another data set of the same source.
Test [7] has the same target. Kind of test: cell-based or functional assay. This is another data set of the same source.

B1: Mab 21 IgG (antibody, V domains shown)
VH: EVQLLESGGGLVQPGGSLRLSCAASGFTFSDNAMGWVRQAPGKGLEWVSAISGPGSSTYYADSVKGRFTISRDNSKNTLYLQMNSLRAEDTAVYYCAKVLGWFDYWGQGTLVTVSS
VL: EIVLTQSPGTLSLSPGERATLSCRASQSVSEYYLAWYQQKPGQAPRLLIEHASTRATGIPDRFSGSGSGTDFTLTISRLEPEDFAVYYCQQYGYPPDFTFGQGTKVEIK
notes: Tested as human IgG1; also called antibody 21
Consider B1, for which the “Affinity cyno/hu gap (KD cynomolgus BCMA / KD human BCMA)” value in test [1] was found to be 9.3 fold.

B2: Mab 27 IgG (antibody, V domains shown)
VH: EVQLLESGGGLVQPGGSLRLSCAASGFTFSSAPMGWVRQAPGKGLEWVSAISYIGHTYYADSVKGRFTISRDNSKNTLYLQMNSLRAEDTAVYYCAKVLGWFDYWGQGTLVTVSS
VL: EIVLTQSPGTLSLSPGERATLSCRASQSVSEYYLAWYQQKPGQAPRLLIEHASTRATGIPDRFSGSGSGTDFTLTISRLEPEDFAVYYCQQYGYPPDFTFGQGTKVEIK
notes: Tested as human IgG1
Regarding B2, in test [1], the “Affinity cyno/hu gap (KD cynomolgus BCMA / KD human BCMA)” value came out at 12.7 fold.

B3: Mab 42 IgG (antibody, V domains shown)
VH: EVQLLESGGGLVQPGGSLRLSCAASGFTFSDNAMGWVRQAPGKGLEWVSAISGPGSSTYYADSVKGRFTISRDNSKNTLYLQMNSLRAEDTAVYYCAKVLGWFDYWGQGTLVTVSS
VL: EIVLTQSPGTLSLSPGERATLSCRASQSVSDEYLSWYQQKPGQAPRLLIHSASTRATGIPDRFSGSGSGTDFTLAISRLEPEDFAVYYCQQYGYPPDFTFGQGTKVEIK
notes: Tested as human IgG1; also called antibody 42; clone 42
Regarding B3, the “Affinity cyno/hu gap (KD cynomolgus BCMA / KD human BCMA)” value in test [1] was determined as 1.7 fold.

B4: Mab 33 IgG (antibody, V domains shown)
VH: EVQLLESGGGLVQPGGSLRLSCAASGFTFYTNAMGWVRQAPGKGLEWVSAINRFGGSTYYADSVKGRFTISRDNSKNTLYLQMNSLRAEDTAVYYCAKVLGWFDYWGQGTLVTVSS
VL: EIVLTQSPGTLSLSPGERATLSCRASQSVSEYYLAWYQQKPGQAPRLLIEHASTRATGIPDRFSGSGSGTDFTLTISRLEPEDFAVYYCQQYGYPPDFTFGQGTKVEIK
notes: Tested as human IgG1
B4: in test [1], the “Affinity cyno/hu gap (KD cynomolgus BCMA / KD human BCMA)” value came to 4.2 fold.

B5: Mab 39 IgG (antibody, V domains shown)
VH: EVQLLESGGGLVQPGGSLRLSCAASGFTFTQNAMGWVRQAPGKGLEWVSAISPTGFSTYYADSVKGRFTISRDNSKNTLYLQMNSLRAEDTAVYYCAKVLGWFDYWGQGTLVTVSS
VL: EIVLTQSPGTLSLSPGERATLSCRASQSVSEYYLAWYQQKPGQAPRLLIEHASTRATGIPDRFSGSGSGTDFTLTISRLEPEDFAVYYCQQYGYPPDFTFGQGTKVEIK
notes: Tested as human IgG1
In the case of B5, the “Affinity cyno/hu gap (KD cynomolgus BCMA / KD human BCMA)” value in test [1] came to 14 fold.

B6: Mab 22 IgG (antibody, V domains shown)
VH: EVQLLESGGGLVQPGGSLRLSCAASGFTFSDNAMGWVRQAPGKGLEWVSAISGPGSSTYYADSVKGRFTISRDNSKNTLYLQMNSLRAEDTAVYYCAKVLGWFDYWGQGTLVTVSS
VL: EIVLTQSPGTLSLSPGERATLSCRASQSVSSYYLAWYQQKPGQAPRLLISGAGSRATGIPDRFSGSGSGTDFTLTISRLEPEDFAVYYCQQYGYPPDFTFGQGTKVEIK
notes: Tested as human IgG1; also called antibody 22; clone 22
Consider B6, for which the “Affinity cyno/hu gap (KD cynomolgus BCMA / KD human BCMA)” value in test [1] was determined as 15.4 fold.

B7: 42-TCBcv (bispecific antibody, human IgG1, kappa, L234A L235A)
heavy 1: not shown
heavy 2: EVQLLESGGGLVQPGGSLRLSCAASGFTFSDNAMGWVRQAPGKGLEWVSAISGPGSSTYYADSVKGRFTISRDNSKNTLYLQMNSLRAEDTAVYYCAKVLGWFDYWGQGTLVTVSSASTKGPSVFPLAPSSKSTSGGTAALGCLVEDYFPEPVTVSWNSGALTSGVHTFPAVLQSSGLYSLSSVVTVPSSSLGTQTYICNVNHKPSNTKVDEKVEPKSCDKTHTCPPCPAPEAAGGPSVFLFPPKPKDTLMISRTPEVTCVVVDVSHEDPEVKFNWYVDGVEVHNAKTKPREEQYNSTYRVVSVLTVLHQDWLNGKEYKCKVSNKALGAPIEKTISKAKGQPREPQVCTLPPSRDELTKNQVSLSCAVKGFYPSDIAVEWESNGQPENNYKTTPPVLDSDGSFFLVSKLTVDKSRWQQGNVFSCSVMHEALHNHYTQKSLSLSPGK
light 1: EIVLTQSPGTLSLSPGERATLSCRASQSVSDEYLSWYQQKPGQAPRLLIHSASTRATGIPDRFSGSGSGTDFTLAISRLEPEDFAVYYCQQYGYPPDFTFGQGTKVEIKRTVAAPSVFIFPPSDRKLKSGTASVVCLLNNFYPREAKVQWKVDNALQSGNSQESVTEQDSKDSTYSLSSTLTLSKADYEKHKVYACEVTHQGLSSPVTKSFNRGEC
light 2: EVQLLESGGGLVQPGGSLRLSCAASGFTFSTYAMNWVRQAPGKGLEWVSRIRSKYNNYATYYADSVKGRFTISRDDSKNTLYLQMNSLRAEDTAVYYCVRHGNFGNSYVSWFAYWGQGTLVTVSSASVAAPSVFIFPPSDEQLKSGTASVVCLLNNFYPREAKVQWKVDNALQSGNSQESVTEQDSKDSTYSLSSTLTLSKADYEKHKVYACEVTHQGLSSPVTKSFNRGEC
In the case of B7, in test [2], the “EC50 redirected T-cell killing of H929 cells (LDH release), Donor 1” value stood at 9.7 pM; the “EC50 redirected T-cell killing of H929 cells (LDH release), Donor 3” value turned out to be 11.7 pM; the “EC50 redirected T-cell killing of H929 cells (LDH release), Donor 4” value came out at 7.2 pM; the “EC50 redirected T-cell killing of H929 cells (LDH release), Donor 5” value was 6.8 pM. Further, in test [3], the “EC50 redirected T-cell killing of L363 cells (LDH release), Donor 1” value came to 15.5 pM; the “EC50 redirected T-cell killing of L363 cells (LDH release), Donor 2” value worked out at 16.7 pM; the “EC50 redirected T-cell killing of L363 cells (LDH release), Donor 3” value worked out at 5.2 pM; the “EC50 redirected T-cell killing of L363 cells (LDH release), Donor 4” value worked out at 2.2 pM. Besides, the “EC50 redirected T-cell killing of L363 cells (LDH release), Donor 5” value in test [3] came to 10.6 pM. Moreover, in test [4], the “EC50 redirected T-cell killing of RPMI-8226 cells (LDH release), Donor 2” value was 383 pM; the “EC50 redirected T-cell killing of RPMI-8226 cells (LDH release), Donor 3” value stood at 18.7 pM; the “EC50 redirected T-cell killing of RPMI-8226 cells (LDH release), Donor 4” value amounted to 3.5 pM; the “EC50 redirected T-cell killing of RPMI-8226 cells (LDH release), Donor 5” value is 1.5 pM. Also, in test [5], the “Annexin-V positive JJN-3 cells (%) at 0.1 pM, Experiment 2” value was found to be 12.8%; the “Annexin-V positive JJN-3 cells (%) at 1 pM, Experiment 1” value was found to be 11.9%; the “Annexin-V positive JJN-3 cells (%) at 1 pM, Experiment 2” value was 13.5%; the “Annexin-V positive JJN-3 cells (%) at 10 pM, Experiment 1” value stood at 12.3%. In test [5], the “Annexin-V positive JJN-3 cells (%) at 10 pM, Experiment 2” value was 13.6%; the “Annexin-V positive JJN-3 cells (%) at 100 pM, Experiment 1” value is 8.62%; the “Annexin-V positive JJN-3 cells (%) at 100 pM, Experiment 2” value came to 14.4%; the “Annexin-V positive JJN-3 cells (%) at 1000 pM, Experiment 1” value is 16.8%. In addition, in test [5], the “Annexin-V positive JJN-3 cells (%) at 1000 pM, Experiment 2” value was found to be 21.7%; the “Annexin-V positive JJN-3 cells (%) at 10000 pM, Experiment 1” value stood at 24.8%; the “Annexin-V positive JJN-3 cells (%) at 10000 pM, Experiment 2” value worked out at 26.9%. In test [6], the “Lysis of JJN-3 cells (%) at 0.1 pM, Experiment 2” value is 17.6%; the “Lysis of JJN-3 cells (%) at 1 pM, Experiment 1” value was found to be 40.3%; the “Lysis of JJN-3 cells (%) at 1 pM, Experiment 2” value turned out to be 34.9%; the “Lysis of JJN-3 cells (%) at 10 pM, Experiment 1” value stood at 39%. In addition, in test [6], the “Lysis of JJN-3 cells (%) at 10 pM, Experiment 2” value was determined as 39.4%; the “Lysis of JJN-3 cells (%) at 100 pM, Experiment 1” value turned out to be 41.9%; the “Lysis of JJN-3 cells (%) at 100 pM, Experiment 2” value came to 55.3%; the “Lysis of JJN-3 cells (%) at 1000 pM, Experiment 1” value is 84%. Moreover, in test [6], the “Lysis of JJN-3 cells (%) at 1000 pM, Experiment 2” value amounted to 81.1%; the “Lysis of JJN-3 cells (%) at 10000 pM, Experiment 1” value came to 92.9%; the “Lysis of JJN-3 cells (%) at 10000 pM, Experiment 2” value stood at 90.4%. Besides, in test [7], the “Annexin-V positive patient bone marrow myeloma plasma cells (%) at 10 pM” value was 19.6%, the “Annexin-V positive patient bone marrow myeloma plasma cells (%) at 100 pM” value is 10.5%, the “Annexin-V positive patient bone marrow myeloma plasma cells (%) at 1000 pM” value amounted to 30% and the “Annexin-V positive patient bone marrow myeloma plasma cells (%) at 10000 pM” value is 39.9%. The “Annexin-V positive patient bone marrow myeloma plasma cells (%) at 30000 pM” value in test [7] came out at 52.5%.
